The subject of the test is COS-7 cells. The experiment in a line: standard headgroup assay of extracts of COS-7 cells transfected with mPLD2. Format: biochemical. The conditions noted are these: pCGN expression vector. As to the method: Human PLD1a was also expressed in COS-7 cells. A fragment of the hPLD1a cDNA encoding the entire open reading frame (nucleotides 93 through 3603 of the cDNA) was subcloned in-frame downstream of the cytomegalovirus promoter and the Flu epitope tag in the mammalian expression vector pCGN. COS-7 cells were transfected with 3 g of the resulting plasmid, pFlu-hPLD1, using lipofectamine (Life Technologies, Inc.). Forty-eight hours later, the cells were assayed for PLD activity in the standard headgroup assay referenced below. The time course of choline release varied linearly over time and in proportion to the amount of protein added.
mPLD2 activity was assessed as described in Example 3 for hPLD1. The mPLD2 protein coding sequence was subcloned in pCGN, an expression vector containing a CMV promoter, flu-epitope tag and an SV40 polyadenylation signal sequence. See Example 3. […] The protein coding sequence of mPLD2 was also subcloned in a baculovirus vector following the protocol of Example 3. mPLD2 activity was successfully detected using the procedures described in Example 3.

B1: mPLD2: murine phospholipase D2, approximately 932 amino acid protein, SEQ ID NO:8 (protein, UniProt P97813 1-933, looked up)
Phospholipase D2: MTVTQKNLFPYGDYLNSSQLHMEPDEVDTLREGEDPADRMHPYLAIYDLQPLKAHPLVFAPGVPVIAQVVGTERYTSGSKVGTCTLYSVRLTHGDFTWTTKKKFRHFQELHRDLQRHKVLMSLLPLARFAVTHSPAREAAAEDIPSLPRGGSEGSARHTASKQKYLENYLNRLLTMSFYRNYHAMTEFLEVSQLSFIPDLGSKGLEGVIRKRSGGHRVPGFTFCGRDQVCYRWSKRWLVVKDSFLLYMRPETGAISFVQLFDPGFEVQVGKRSTETRYGVRIDTSHRSLILKCSSYRQARWWGQEITELAQGSGRDFLQLHQHDSYAPPRPGTLARWFVNGAGYFAAVADAILRAQEEIFITDWWLSPEIYLKRPAHSDDWRLDIMLKRKAEEGVRVSILLFKEVELALGINSGYSKRTLMLLHPNIKVMRHPDLVTLWAHHEKLLVVDQVVAFLGGLDLAFGRWDDVQYRLTDLGDPSEPVHLQTPTLGSDPAATPDLSHNQFFWLGKDYSNLITKDWVQLDRPFEDFIDRETTPRMPWRDVGVVVHGVAARDLARHFIQRWNFTKTTKARYKTPLYPYLLPKSTSTANNLPFMIPGGQCATVQVLRSVDRWSAGTLENSILNAYLHTIRESQHFLYIENQFFISCSDGRTVLNKVGDEIVDRILKAHEQGQCFRVYLLLPLLPGFEGDISTGGGNSIQAILHFTYRTLCRGEHSILHRLKAAMGTAWRDYMSICGLRTHGELGGHPISELIYIHSKMLIADDRTVIIGSANINDRSLLGKRDSELAILIKDTEMEPSLMDGVEYQAGRFALSLRKHCFSVILGANTWPDLDLRDPVCDDFFQLWQETAENNATIYEQIFRCLPSNATRSLRALREYVAVESLATVSPSLAQSELAHIQGHLVHFPLKFLEDESLLPPLGSKEGMIPLEVWT
As to B1, the “PLD activity in transfected COS-7 cell extracts” value is reported as “far above COS-7 background levels”.

The values above are taken from patent US6379665B1, “Phospholipase D polypeptide and DNA sequences” (Onyx Pharmaceuticals, Inc., priority 1996, dated 2002).
